In patent US20240279345A1, “ALPHA 5 BETA 1 INTEGRIN BINDING AGENTS AND USES THEREOF” (PASITHEA THERAPEUTICS CORP., priority 2021, published 2024):
Numbering of substitutions follows the chain as printed. Blank lines part the entries; values can stand above or below the binder they belong to.

Tests used:
[1] = molecular target: T1, purified recombinant human α5β1 integrin heterodimer, 6×His tagged (rh-α5β1); Acro Biosystems, cat. no. … (human, UniProt P08648 42-995; P05556 21-728); assay: BLI (Octet), supernatant mAb on anti-mouse IgG Fc sensor, 20 nM rh-α5β1
T1 construct: bought recombinant heterodimer; also called rh-α5β1-6×His tagged protein; His-tagged-α5β1
Source text: Anti-Mouse IgG Fc biosensors were used to load each clone supernatant. Assay steps were as follows: Sensor Check (30s)-->Load Ab (700s)-->Quench (480s)-->Baseline(480s)-->Ab Assoc. (600s)-->Dissoc. (600s).

[2] = molecular target: T2, α5β1 integrin on cells (PMA-activated K562 cells; U87MG cells) (human, UniProt P08648 42-1049; P05556 21-798); assay: flow cytometry on PMA-activated K562 cells, hybridoma supernatant
T2 construct: Endogenous integrin of human cell lines; also called cellular α5β1 integrin; cell surface α5β1 integrin receptors
Experimental: Four weeks later cells from spleens and draining lymph nodes were fused to create hybridomas. […] In short, hybridoma supernatants were incubated with the activated K562 cells for 20 minutes, washed, then incubated with a fluorescent conjugated detecting antibody for 20 minutes, washed, resuspended in 7-Aminoactinomycin D, and Mean Fluorescence Intensity (MFI) measured on a Guava cytometer (Luminex Corporation, Austin, TX 78727).

T1 sequence (P08648 42-995 limits assumed, form in doubt, chain 1 of 2): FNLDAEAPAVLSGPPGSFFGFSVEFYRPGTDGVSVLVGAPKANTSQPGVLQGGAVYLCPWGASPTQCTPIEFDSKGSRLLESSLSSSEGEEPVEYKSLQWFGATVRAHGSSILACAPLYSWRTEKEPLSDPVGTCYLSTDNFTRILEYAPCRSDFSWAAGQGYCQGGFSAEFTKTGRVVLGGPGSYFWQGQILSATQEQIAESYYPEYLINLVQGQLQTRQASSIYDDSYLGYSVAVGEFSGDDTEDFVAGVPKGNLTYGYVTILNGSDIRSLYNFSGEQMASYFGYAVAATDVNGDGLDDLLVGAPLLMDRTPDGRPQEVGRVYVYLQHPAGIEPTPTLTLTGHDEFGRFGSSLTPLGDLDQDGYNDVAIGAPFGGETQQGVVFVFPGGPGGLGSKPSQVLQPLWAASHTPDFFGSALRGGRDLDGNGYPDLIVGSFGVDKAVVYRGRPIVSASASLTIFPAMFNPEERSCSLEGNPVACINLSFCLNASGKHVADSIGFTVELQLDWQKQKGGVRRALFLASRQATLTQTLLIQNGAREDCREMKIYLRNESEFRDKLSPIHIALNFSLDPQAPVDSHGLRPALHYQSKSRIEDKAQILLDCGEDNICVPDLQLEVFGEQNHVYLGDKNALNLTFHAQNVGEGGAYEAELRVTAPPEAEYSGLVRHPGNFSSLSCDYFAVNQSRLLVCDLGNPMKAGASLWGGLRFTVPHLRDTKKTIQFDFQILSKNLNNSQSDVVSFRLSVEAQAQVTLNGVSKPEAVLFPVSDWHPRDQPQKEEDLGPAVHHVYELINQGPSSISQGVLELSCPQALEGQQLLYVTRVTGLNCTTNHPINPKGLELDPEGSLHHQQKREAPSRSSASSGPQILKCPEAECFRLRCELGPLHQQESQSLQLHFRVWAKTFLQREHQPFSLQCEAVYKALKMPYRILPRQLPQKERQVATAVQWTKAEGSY
T1 sequence (P05556 21-728 limits assumed, form in doubt, chain 2 of 2): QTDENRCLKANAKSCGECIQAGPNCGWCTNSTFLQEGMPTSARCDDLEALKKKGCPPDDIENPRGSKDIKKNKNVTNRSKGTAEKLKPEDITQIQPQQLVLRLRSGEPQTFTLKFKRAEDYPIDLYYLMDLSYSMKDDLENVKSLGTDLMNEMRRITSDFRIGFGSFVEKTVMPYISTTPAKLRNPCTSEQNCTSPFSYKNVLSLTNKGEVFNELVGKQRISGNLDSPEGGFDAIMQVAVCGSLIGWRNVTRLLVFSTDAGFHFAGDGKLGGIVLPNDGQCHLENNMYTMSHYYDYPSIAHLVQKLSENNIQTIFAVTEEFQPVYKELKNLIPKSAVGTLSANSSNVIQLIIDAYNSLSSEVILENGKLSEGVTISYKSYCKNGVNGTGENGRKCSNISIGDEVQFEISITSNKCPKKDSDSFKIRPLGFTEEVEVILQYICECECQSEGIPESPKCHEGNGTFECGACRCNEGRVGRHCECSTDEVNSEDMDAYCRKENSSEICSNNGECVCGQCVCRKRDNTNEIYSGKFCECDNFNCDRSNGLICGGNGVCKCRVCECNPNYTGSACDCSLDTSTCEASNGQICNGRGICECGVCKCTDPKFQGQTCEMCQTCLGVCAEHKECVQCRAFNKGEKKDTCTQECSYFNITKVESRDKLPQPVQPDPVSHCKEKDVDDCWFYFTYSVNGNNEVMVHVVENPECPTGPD
T2 sequence (P08648 42-1049 limits assumed, chain 1 of 2): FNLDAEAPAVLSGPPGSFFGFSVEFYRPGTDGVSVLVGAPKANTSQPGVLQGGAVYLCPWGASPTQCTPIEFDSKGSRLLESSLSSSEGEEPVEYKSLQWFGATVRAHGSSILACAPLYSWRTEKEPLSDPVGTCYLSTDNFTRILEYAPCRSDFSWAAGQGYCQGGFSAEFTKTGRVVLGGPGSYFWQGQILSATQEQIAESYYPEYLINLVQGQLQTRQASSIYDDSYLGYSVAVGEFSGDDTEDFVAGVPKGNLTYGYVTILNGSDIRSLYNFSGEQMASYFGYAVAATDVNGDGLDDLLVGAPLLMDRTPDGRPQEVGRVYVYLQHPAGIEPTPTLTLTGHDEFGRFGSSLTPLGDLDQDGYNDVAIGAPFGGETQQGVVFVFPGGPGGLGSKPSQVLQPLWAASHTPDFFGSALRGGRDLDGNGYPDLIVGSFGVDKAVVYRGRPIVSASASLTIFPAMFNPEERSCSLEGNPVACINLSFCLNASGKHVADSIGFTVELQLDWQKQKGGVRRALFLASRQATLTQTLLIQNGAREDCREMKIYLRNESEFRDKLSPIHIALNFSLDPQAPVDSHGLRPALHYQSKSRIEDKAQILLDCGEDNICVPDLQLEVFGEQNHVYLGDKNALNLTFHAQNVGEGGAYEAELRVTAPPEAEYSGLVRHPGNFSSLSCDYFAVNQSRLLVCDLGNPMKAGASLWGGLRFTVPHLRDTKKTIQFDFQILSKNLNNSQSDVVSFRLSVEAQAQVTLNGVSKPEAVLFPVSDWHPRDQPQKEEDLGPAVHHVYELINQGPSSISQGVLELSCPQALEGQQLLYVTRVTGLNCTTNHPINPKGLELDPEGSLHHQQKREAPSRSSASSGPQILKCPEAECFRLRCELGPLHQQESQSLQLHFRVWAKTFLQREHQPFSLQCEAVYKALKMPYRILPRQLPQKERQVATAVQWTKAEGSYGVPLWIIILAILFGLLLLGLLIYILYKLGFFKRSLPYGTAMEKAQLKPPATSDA
T2 sequence (P05556 21-798 limits assumed, chain 2 of 2): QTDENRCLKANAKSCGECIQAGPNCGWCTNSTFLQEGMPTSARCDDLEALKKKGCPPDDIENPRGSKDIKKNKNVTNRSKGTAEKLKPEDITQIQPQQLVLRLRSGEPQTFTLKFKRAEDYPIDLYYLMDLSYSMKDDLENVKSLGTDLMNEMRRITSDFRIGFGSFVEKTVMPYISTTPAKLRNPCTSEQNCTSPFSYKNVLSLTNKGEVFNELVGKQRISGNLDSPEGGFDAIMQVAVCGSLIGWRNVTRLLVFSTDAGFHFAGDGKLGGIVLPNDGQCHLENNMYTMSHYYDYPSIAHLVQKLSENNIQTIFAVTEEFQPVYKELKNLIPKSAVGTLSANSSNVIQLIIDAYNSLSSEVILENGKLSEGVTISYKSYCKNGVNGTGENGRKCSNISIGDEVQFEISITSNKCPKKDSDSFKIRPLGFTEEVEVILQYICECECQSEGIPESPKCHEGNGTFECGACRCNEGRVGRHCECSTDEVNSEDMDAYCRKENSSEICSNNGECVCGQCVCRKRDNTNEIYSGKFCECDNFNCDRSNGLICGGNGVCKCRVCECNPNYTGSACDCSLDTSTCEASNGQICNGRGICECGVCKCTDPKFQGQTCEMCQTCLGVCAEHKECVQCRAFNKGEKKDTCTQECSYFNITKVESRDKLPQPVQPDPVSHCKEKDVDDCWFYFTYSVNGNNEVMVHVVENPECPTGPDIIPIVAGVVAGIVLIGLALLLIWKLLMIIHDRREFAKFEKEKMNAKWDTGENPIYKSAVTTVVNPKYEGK

Kd [1]: 0.845 nM
koff [1]: 0.000198 s⁻¹
kon [1]: 234000 M⁻¹ s⁻¹
B1: A-14G08 (antibody, V domains shown)
VH: QVQLQQPGAELVKPGASVKLSCKASGYTFTIYWINWVKQRPGQGLEWIGKIYPGSISTDYNEKFKSKATLTVDTSSSTAYMQLSSLTSDDSAVYYCAITGTGGLAYWGQGTLVTVSA
VL: ENVLTQSPAIMSASLGEKVTMTCRASSSVNYMYWYQQKSDASPKLWIYFTSSLAPGVPGRFSGSGSGNSYSLTISTMEGEDAATYYCQQFTTSPFTFGSGTKLEIK
notes: mouse hybridoma antibody

Kd [1]: 0.901 nM
koff [1]: 0.000193 s⁻¹
kon [1]: 215000 M⁻¹ s⁻¹
B2: A-15H11 (antibody, V domains shown)
VH: B1 VH
VL: B1 VL
notes: mouse hybridoma antibody

Kd [1]: 1.23 nM
koff [1]: 0.000396 s⁻¹
kon [1]: 321000 M⁻¹ s⁻¹
B3: A-4G02 (antibody, V domains shown)
VH: QVQLKESGPGLVAPSQSLSITCTISGFSLTSYGVHWVRQPPGKGLEWLVVIWSDGSTTYNSTLKSRLSISKDNSKSQVFFKMNSLQTDDTAMYYCARHYDYDGDWFAYWGQGTLVTVSA
VL: QIVLTQSPAIMSASLGERVTMTCTASSRVSSNSLHWYQQKPGSSPKLWIYSTSNLASGVPARFSGSGSGTSYSLTISSMEAEDAATYYCHQYLRSPPTFGGGTKLEIK
notes: mouse hybridoma antibody

Kd [1]: 4.75 nM
koff [1]: 0.00128 s⁻¹
kon [1]: 270000 M⁻¹ s⁻¹
B4: A-7D06 (antibody, V domains shown)
VH: QVQLKESGPGLVAPSQSLSITCTISGFSLTTYGVHWVRQPPGKGLEWLVVIWSDGSTTYNSALKSRLNITKDNSKSQVFLKMNSLQTDDTAMYYCVRHGGLLRRDAMDYWGQGTSVTVSS
VL: B3 VL with R28S, L34F, I49L
notes: mouse hybridoma antibody

Kd [1]: 5.08 nM
koff [1]: 0.00124 s⁻¹
kon [1]: 244000 M⁻¹ s⁻¹
B5: A-3A08 (antibody, V domains shown)
VH: B4 VH
VL: B3 VL with R28S, L34F, I49L
notes: mouse hybridoma antibody

Kd [1]: 0.442 nM
koff [1]: 0.00012 s⁻¹
kon [1]: 271000 M⁻¹ s⁻¹
B6: C-8G11 (antibody, V domains shown)
VH: QVQLKESGPDLVAPSQSLSITCTVSGFSLTDYGVHWVRQPPGKGLEWLVVIWSDGSTTYNSALKSRLSITKDTSKRQVFLKMNSLQTDDTAMYYCARHAPSFIRYGSRYDALDYWGQGTSVTVSS
VL: B3 VL with M21L, R28S, S30T, N32S, S33F, L93H
notes: mouse hybridoma antibody

MFI [2]: 1980
B7: A-4G02 (antibody, V domains shown)
VH: B3 VH
VL: B3 VL
notes: mouse hybridoma

MFI [2]: 1390
B8: A-15B08 (antibody, V domains shown)
VH: B3 VH
VL: B3 VL
notes: mouse hybridoma antibody (supernatant, or purified by Protein A); NST N-glycosylation site in CDRH2; also called antibody designated A-15B08

MFI [2]: 2140
B9: A2-3B06 (antibody, V domains shown)
VH: B4 VH
VL: B3 VL with R28S, L34F, I49L
notes: mouse hybridoma antibody (supernatant, or purified by Protein A); also called antibody designated A2-3B06

Kd [1]: 5.03 nM
koff [1]: 0.00132 s⁻¹
kon [1]: 261000 M⁻¹ s⁻¹
B10: A-11G01 (antibody, V domains shown)
VH: B4 VH
VL: B3 VL with R28S, L34F, I49L
notes: mouse hybridoma antibody

MFI [2]: 2120
B11: A2-6C10 (antibody, V domains shown)
VH: B4 VH
VL: B3 VL with R28S, L34F, I49L
notes: mouse hybridoma

MFI [2]: 1890
B12: A2-5D10 (antibody, V domains shown)
VH: B3 VH with F80L
VL: B3 VL with V3L, R28S, N32R, S33C, S64R, L93Y
notes: mouse hybridoma antibody (supernatant, or purified by Protein A); also called antibody designated A2-5D10
